Patent US20240010673A1 (ARIZONA BOARD OF REGENTS ON BEHALF OF THE UNIVERSITY OF …, published 2024)

Biological target: the molecule itself
Test: cell-based or functional assay

B1: P-C24-P (other)
chain: MGSGSGSAPQMLRELQETNAALQDVRELLRQQVKEITFLKNTVMESDASGASYRDPMGAGAGAGPEGAGAGAGPEGAGAGAGPEGAGAGAGPEGAGAGAGPEGAGAGAGPEGAGAGAGPEGAGAGAGPEGAGAGAGPEGAGAGAGPEGARMPTSYRDPMGAGAGAGPEGAGAGAGPEGAGAGAGPEGAGAGAGPEGAGAGAGPEGAGAGAGPEGAGAGAGPEGAGAGAGPEGAGAGAGPEGAGAGAGPEGARMPTSYRDPMGAGAGAGPEGAGAGAGPEGAGAGAGPEGAGAGAGPEGARMPEFAPQMLRELQETNAALQDVRELLRQQVKEITFLKNTVMESDASGKLAAALEHHHHHH
In the case of B1, the “half-life of P coiled-coil cross-linked hydrogel in bioerosion test at 25 C” value is reported as ~2.6 h.
